{
  "source": "patent US6375944B1",
  "about": "“Methods and compositions for enhancing the immunostimulatory effect of interleukin-12” (The Wistar Institute of Anatomy and Biology, priority 1998, dated 2002)",
  "molecules": {"B1": {"name": "rmIL-12: recombinant murine Interleukin-12, heterodimeric cytokine, from Genetics Institute (protein, UniProt P43431 23-215; P43432 23-335, looked up)", "Interleukin-12 subunit alpha": "RVIPVSGPARCLSQSRNLLKTTDDMVKTAREKLKHYSCTAEDIDHEDITRDQTSTLKTCLPLELHKNESCLATRETSSTTRGSCLPPQKTSLMMTLCLGSIYEDLKMYQTEFQAINAALQNHNHQQIILDKGMLVAIDELMQSLNHNGETLRQKPPVGEADPYRVKMKLCILLHAFSTRVVTINRVMGYLSSA", "Interleukin-12 subunit beta": "MWELEKDVYVVEVDWTPDAPGETVNLTCDTPEEDDITWTSDQRHGVIGSGKTLTITVKEFLDAGQYTCHKGGETLSHSHLLLHKKENGIWSTEILKNFKNKTFLKCEAPNYSGRFTCSWLVQRNMDLKFNIKSSSSSPDSRAVTCGMASLSAEKVTLDQRDYEKYSVSCQEDVTCPTAEETLPIELALEARQQNKYENYSTSFFIRDIIKPDPPKNLQMKPLKNSQVEVSWEYPDSWSTPHSYFSLKFFVRIQRKKEKMKETEEGCNQKGAFLVEKTSTEVQCKGGNVCVQAQDRYYNSSCSKWACVPCRVRS"}},
  "key": {"SCK cells [1]": {"test_system": "SCK cells", "settings": "A/J mice with established SCK immunity; given just prior to tumor cell rechallenge; cited from earlier work"}, "SCK cells [2]": {"test_system": "SCK cells", "assay": "SCK.GM cell vaccination followed by SCK tumor cell challenge", "assay_type": "in vivo, A/J mice", "settings": "rmIL-12 250 ng/day ip days 0-4 and 7-11; challenge two weeks after vaccination", "source_text": "A. Female A/J mice were vaccinated with 10^6 irradiated SCK.GM cells suspended in PBS at 10^7 trypan blue-excluding cells/ml. Cells were irradiated with 6000 rads from a ^137Cs source, and mice were vaccinated with 10^6 cells s.c. (day 0). […] Vaccinated and naive A/J mice were challenged fourteen days after vaccination with 2.5×10^4 trypan blue-excluding SCK cells in the opposite flank to assay for the presence of tumor immunity. Tumorigenesis was scored daily."}, "allogeneic DTH responses": {"test_system": "allogeneic DTH responses", "assay": "Delayed type hypersensitivity (DTH) assessment, footpad swelling after alloimmunization with HKB cells", "assay_type": "in vivo, mice", "experimental": "A. C57BL/6 (H-2^b) mice were vaccinated with irradiated allogeneic HKB (H-2^a) cells suspended in PBS at 10^7 trypan blue-excluding cells/ml. Cells were irradiated with 6000 rads from a ^137Cs source, and mice were vaccinated with 10^6 cells s.c. (day 0). Mice were given rmIL-12 (Genetics Institute, Andover, Mass.) by intraperitoneal injection (ip) with 500 ng/day on days 0-4 and 7-11 (10 injections). Control mice received phosphate buffered saline (PBS) injections. The vaccinated mice received 1 mg of neutralizing anti-IFNγ (XMG6) and/or anti-TNFα (XT22) monoclonal antibodies (mAbs) on days −1, 3 and 7. Mice were subsequently assayed for delayed type hypersensitivity (DTH) and for mitogen and alloantigen stimulation of splenocytes as described below.\nThe DTH assessment was performed as follows: For assessment of allogeneic DTH responses, mice were injected with 50 μl PBS containing 10^6 irradiated SCK cells in the right footpad and with 50 μl PBS in the left footpad. Footpad thickness measurements were taken just before injection and 24 hours later using a Starrett pocket gauge (Athol, Mass.). Data are presented as the difference in footpad swelling induced by SCK cells and by PBS.\nC57BL/6 mice genetically deficient for IFNγ (IFNγ^−/−) and wild-type C57BL/6 mice were vaccinated with 10^6 irradiated HKB cells and given 500 ng rmIL-12 or phosphate buffered saline (PBS) on days 0-4 and 7-11 or left unvaccinated. They were challenged with 10^6 irradiated SCK cells in the right foot, with PBS control injection in the left foot on day 12. The DTH responses were measured as described above in Part A.\nC. To examine the role of TNFα, SV129×C57BL/6 mice deficient for both p55 and p75 TNF receptors (TNFR^−/− mice) and control mice were vaccinated with 10^6 irradiated HKB cells and given 500 ng IL-12 or PBS on days 0-4 and 7-11. DTH assessment was performed on day 12, as described above in Part A.\nFootpad injections for DTH assessment were performed on day 12 as described above in the DTH assay. Swelling 24 hours later is presented as the mean (+S.E.) from 3 mice in each treatment group in FIG. 4A."}, "splenocytes": {"test_system": "splenocytes", "assay": "Mitogen and alloantigen stimulation of splenocytes (3H-thymidine incorporation), whole or adherent/nonadherent cocultures", "assay_type": "cell-based, mice", "settings": "for proliferative responses to Con A, IL-12 and allogeneic stimulation: data not shown", "experimental": "The mitogen and alloantigen stimulation of splenocytes assay was performed as follows: In vitro mitogenic stimulation of splenocytes with […] Con A or 100 U/ml rmIL-12 was performed as described [Kurzawa, cited above]. Proliferative responses to allogeneic antigens (mixed lymphocyte reaction, MLR) was measured when splenocytes from the mice were stimulated with 10^5 mitomycin treated A/J splenocytes. Splenocyte fractionation was performed by allowing 10^5 splenocytes to adhere for 90 minutes in 96 well plates, after which the nonadherent cells were removed and cocultured with adherent cells from different wells for assay. When added, antibodies (XMG6 for IFNγ, XT22 for TNFα, AE5 for IL-10 and C17.8 for IL-12 ) were used at […] final concentration. After 72 hours exposure to mitogen, cultures were pulsed with 1 μCi^3H-thymidine for 16 hours, cells were harvested and ^3H incorporation was measured by scintillation counting. Supernatants from cultures assayed for IFNγ by radioimmunoassay (RIA) (using antibodies AN18 and XMG6 [Wysocka, M. et al. 1995 Eur. J. Immunol. 25:672] were harvested 24 or 72 hours after stimulation.\nA. Splenocytes from rmIL-12- and PBS-treated C57BL/6 mice were fractioned by adherence to 96 well plastic plates for 90 minutes. The cells were reconstituted in various combinations of adherent and nonadherent cells by overlaying nonadherent cells on the adherent cells. These cocultures were then stimulated with either 2.5 μg/ml Con A, 100 U/ml IL-12, or 10^5 mitomycin C treated A/J (H-2A) splenocytes, as described in the mitogen/alloantigen assay of Example 1.\nB. Cocultures were established from splenic adherent and nonadherent cells of PBS-treated mice or from the adherent cells of rmIL-12-treated mice and nonadherent cells of PBS-treated mice. Antibodies XMG6 (to IFNγ), XT22 (to TNFα), AE5 (to IL-10) and C17.8 (to IL-12 ) were added to a final concentration of […] in cocultures containing adherent cells from spleen of rmIL-12-treated mice, also according to the assay described in Example 1.\nCocultures were established from splenic adherent and nonadherent cells of PBS-treated mice or from the adherent cells of rmIL-12-treated mice and nonadherent cells of PBS-treated mice. Antibodies XMG6 (to IFNγ), XT22 (to TNFα), AE5 (to IL-10) and C17.8 (to IL-12) were added to a final concentration of […] in cocultures containing adherent cells from spleen of rmIL-12-treated mice. An inhibitor of inducible nitric oxide synthase (iNOS), L-NMMA (Sigma), was added to cocultures of adherent cells from rmIL-12 treated mice and nonadherent cells from control mice at a final concentration of […]. Alternatively, D-NMMA (Sigma), a noninhibitory isoform of L-NMMA, was added to other cocultures as a control."}, "SCK cells [3]": {"test_system": "SCK cells", "settings": "cited from earlier work"}, "[4]": {"assay": "Splenomegaly after a course of rmIL-12", "assay_type": "in vivo", "settings": "iNOS−/− mice, like wild-type mice"}},
  "note": "Where two headings read alike, the source gives them in different places.",
  "data": [
    {"molecule": "B1", "values": [
      {"measurement": "Effect on tumor protection", "setting": "SCK cells [1]", "value": "impairs tumor protection"},
      {"measurement": "Effect on SCK.GM vaccine protection from tumor cell challenge", "setting": "SCK cells [2]", "value": "severely impaired this protection"},
      {"measurement": "DTH responses", "setting": "allogeneic DTH responses; IFNγR1−/− C57BL/6×SV129 mice and controls vaccinated with HKB cells, data not shown", "value": "suppressed DTH responses in control but not IFNγR1^−/− mice"},
      {"measurement": "DTH responses", "setting": "allogeneic DTH responses; IFNγ−/− C57BL/6 mice vaccinated with HKB cells, rmIL-12 500 ng days 0-4 and 7-11", "value": "had no suppressive effect"},
      {"measurement": "DTH responses", "setting": "allogeneic DTH responses; TNFR−/− (p55 and p75) SV129×C57BL/6 mice vaccinated with HKB cells, 500 ng days 0-4 and 7-11", "value": "depressed DTH responses like wild-type"},
      {"measurement": "DTH responses", "setting": "allogeneic DTH responses; iNOS−/− C57BL/6 mice vaccinated with HKB cells, course of rmIL-12", "value": "at least as great as those of PBS-treated iNOS^−/− and wild-type mice"},
      {"measurement": "DTH responses", "setting": "allogeneic DTH responses; wild-type C57BL/6 mice vaccinated with irradiated HKB cells, rmIL-12 500 ng/day ip days 0-4 and 7-11, challenge day 12", "value": "suppressed DTH responses to background levels"},
      {"measurement": "mitogenic responses", "setting": "splenocytes; cultures of adherent and nonadherent splenocytes both from rmIL-12 treated mice, vs. PBS-treated", "value": "suppressed mitogenic responses"},
      {"measurement": "proliferative responses (Con A, IL-12 or alloantigen)", "setting": "splenocytes; nonadherent cells from control mice mixed with adherent cells from rmIL-12 treated mice", "value": "severely impaired"},
      {"measurement": "mitogenic responses", "setting": "splenocytes; nonadherent cells from rmIL-12 treated mice cocultured with adherent cells from PBS-treated mice", "value": "normal mitogenic responses"},
      {"measurement": "in vitro mitogenic and alloproliferative responses", "setting": "splenocytes; splenocytes from rmIL-12-treated HKB-vaccinated C57BL/6 mice", "value": "suppressed"},
      {"measurement": "proliferative responses to Con A, IL-12 and allogeneic stimulation", "setting": "splenocytes; splenocytes from rmIL-12-treated TNFR−/− mice", "value": "suppressed"},
      {"measurement": "proliferative responses after stimulation with mitogens or alloantigens", "setting": "splenocytes; splenocytes from rmIL-12-treated iNOS−/− mice", "value": "proliferative responses like those of splenocytes from control mice"},
      {"measurement": "proliferative responses to Con A, IL-12 and allogeneic stimulation", "setting": "splenocytes; splenocytes from rmIL-12 treated IFNγ−/− mice", "value": "normal proliferative responses"},
      {"measurement": "Effect on SCK.GM vaccine protection", "setting": "SCK cells [3]; four weeks after vaccination", "value": "had no deleterious effect"},
      {"measurement": "Effect on SCK.GM vaccine protection", "setting": "SCK cells [3]; two weeks after vaccination", "value": "abrogated protection"},
      {"measurement": "splenomegaly", "setting": "[4]", "value": "induced splenomegaly"}
    ]}
  ]
}
